Data reported in article PMC11144202, “Highly biased agonism for GPCR ligands via nanobody tethering” (Nature Communications, 2024).
One block for each binder: values may come before it.

What was measured:
[1] = target: T1, glucagon-like peptide-1 receptor (GLP1R) (UniProt P43220 24-463); test: SPR; GLP1R-ECD; replicate 1
T1 chain: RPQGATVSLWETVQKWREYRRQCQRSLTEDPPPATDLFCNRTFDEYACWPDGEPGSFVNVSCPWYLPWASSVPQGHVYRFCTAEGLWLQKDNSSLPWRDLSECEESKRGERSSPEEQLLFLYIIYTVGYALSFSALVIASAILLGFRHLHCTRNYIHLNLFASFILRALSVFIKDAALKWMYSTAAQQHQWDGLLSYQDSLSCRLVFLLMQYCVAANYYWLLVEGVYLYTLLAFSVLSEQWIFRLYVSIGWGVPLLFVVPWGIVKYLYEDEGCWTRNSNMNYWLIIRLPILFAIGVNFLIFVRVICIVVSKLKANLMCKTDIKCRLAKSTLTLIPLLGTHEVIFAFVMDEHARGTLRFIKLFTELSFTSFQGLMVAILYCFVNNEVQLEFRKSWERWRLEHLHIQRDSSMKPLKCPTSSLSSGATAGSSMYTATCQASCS

[2] = target: T1, glucagon-like peptide-1 receptor (GLP1R); test: SPR; GLP1R-ECD; replicate 2
[3] = target: T1, glucagon-like peptide-1 receptor (GLP1R); test: SPR; GLP1R-ECD; replicate 1
[4] = target: T1, glucagon-like peptide-1 receptor (GLP1R); test: SPR; GLP1R-ECD; replicate 2
[5] = target: T2, PTHR1 extracellular domain (ECD) (Homo sapiens); test: SPR; Nb_(PTHR1) and PTHR1 ECD; details in Supplementary Methods; conditions: both partners purified
T2 construct: extracellular domain of the type-1 parathyroid hormone receptor; also called PTHR1 ECD; PTHR1 (ECD)
T2 chain: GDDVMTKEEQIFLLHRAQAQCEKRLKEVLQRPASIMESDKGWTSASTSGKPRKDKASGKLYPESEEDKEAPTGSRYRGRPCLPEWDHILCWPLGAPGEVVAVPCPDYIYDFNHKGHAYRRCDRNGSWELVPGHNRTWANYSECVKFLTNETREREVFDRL

[6] = target: T3, PTHR1 extracellular domain (ECD); test: SPR; replicate 1; biotinylated Nb immobilized
T3 chain: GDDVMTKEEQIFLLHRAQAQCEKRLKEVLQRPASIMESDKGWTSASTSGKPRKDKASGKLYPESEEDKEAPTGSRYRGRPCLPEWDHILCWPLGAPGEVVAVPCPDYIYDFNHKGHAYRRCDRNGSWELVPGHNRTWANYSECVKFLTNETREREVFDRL

[7] = target: T3, PTHR1 extracellular domain (ECD); test: SPR; replicate 2; biotinylated Nb immobilized
[8] = target: T3, PTHR1 extracellular domain (ECD); test: SPR; replicate 1; biotinylated Nb immobilized
[9] = target: T3, PTHR1 extracellular domain (ECD); test: SPR; replicate 2; biotinylated Nb immobilized
[10] = target: T3, PTHR1 extracellular domain (ECD); test: SPR; mean of two experiments; biotinylated Nb immobilized
[11] = target: T4, nanoluciferase-PTHR1 fusion (nLuc-PTHR1) (Homo sapiens, UniProt Q03431); test: FRET or BRET; competition on cells expressing nLuc-PTHR1: Nb_(PTHR1)-TMR (1 uM) followed by unlabeled ligand (2 uM), or varying unlabeled ligand added together with Nb_(PTHR1)-TMR (300 nM); conditions: one partner purified
T4 construct: type-1 parathyroid hormone receptor with nanoluciferase fused to the receptor N-terminus; source: cell line stably expressing the construct, on cells; not shown: nanoluciferase, N-terminal, kept

[12] = target: T5, native human type-1 parathyroid hormone receptor (hPTHR1) (Homo sapiens, UniProt Q03431); test: flow cytometry on cells; biotin-labeled Nbs or conjugates (500 nM in Fig. 4A, or varying concentrations) incubated 30 min on ice in PBS with 2% BSA with HEK293 cells stably expressing the receptor; detection with streptavidin-APC; conditions: one partner purified
T5 construct: type-1 parathyroid hormone receptor, human, unmodified receptor on the cell surface; also called WT PTHR1; WT-PTHR1; source: HEK293 (GS22) cells, stably expressing, on cells
T5 sequence (Q03431 27-593): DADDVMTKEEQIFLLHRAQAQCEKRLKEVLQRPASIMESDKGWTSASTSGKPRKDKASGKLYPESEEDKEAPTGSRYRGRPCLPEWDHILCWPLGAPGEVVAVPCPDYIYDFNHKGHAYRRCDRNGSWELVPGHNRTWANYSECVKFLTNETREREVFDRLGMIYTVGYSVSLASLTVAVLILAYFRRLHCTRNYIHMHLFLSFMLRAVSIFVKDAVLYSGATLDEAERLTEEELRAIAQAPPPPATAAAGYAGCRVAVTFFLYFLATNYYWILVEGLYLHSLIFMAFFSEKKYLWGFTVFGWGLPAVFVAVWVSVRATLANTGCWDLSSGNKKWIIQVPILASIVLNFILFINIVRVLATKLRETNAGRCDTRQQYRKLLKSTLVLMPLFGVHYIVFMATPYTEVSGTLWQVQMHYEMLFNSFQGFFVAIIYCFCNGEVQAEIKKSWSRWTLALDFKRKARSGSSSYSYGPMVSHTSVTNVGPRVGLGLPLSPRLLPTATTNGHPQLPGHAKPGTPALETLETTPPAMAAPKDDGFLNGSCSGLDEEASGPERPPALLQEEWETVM

T4 sequence (Q03431 27-593): as above

B1: Nb_(GLP1R) (VHH)
VHH: EVQLVESGGGLVQAGGSLRLSCAASGNTYSYKVMGWFRQAPGKEREFVGIIIRNGDTTYYADSVKGRFTISADNAKNTVYLQMNSLKPEDTAVYYCAASPKYMTAYERSYDWGQGTQVTVSS
koff [1]: 0.0041 s⁻¹ | koff [2]: 0.0013 s⁻¹ | Kd [3]: 24 nM | Kd [4]: 32 nM

B2: Nb_(PTHR1), unlabeled (VHH)
VHH: EVQLVESGGGLVQAGGSLRLSCAASGNIFANNIMGWYRQPPGKEREFVAHVSHDGDSMYAVSVKGRFAISRKDATNLYLQMNSLKPEDTAIYFCRLLNIPTQGRMEGFWGQGTQVTVSS
notes: Expressed from pET26b in frame with pelB and His6; the Nbs for sortagging bear LPETGG followed by His6 at the C-terminus; also called VHH_(PTHR); source: E. coli BL21(DE3), purified (Ni-NTA, SEC)
Kd [5]: ~1 nM | Kd [6]: 0.5 nM | Kd [7]: 0.9 nM | koff [8]: 0.0065 s⁻¹ | koff [9]: 0.0015 s⁻¹ | Kd [10]: 0.7 nM

The next lines start with the values.

binding result [11]: binds
B3: Nb_(PTHR1)-TMR (tetramethylrhodamine-labeled Nb_(PTHR1)) (VHH)
VHH: EVQLVESGGGLVQAGGSLRLSCAASGNIFANNIMGWYRQPPGKEREFVAHVSHDGDSMYAVSVKGRFAISRKDATNLYLQMNSLKPEDTAIYFCRLLNIPTQGRMEGFWGQGTQVTVSS
notes: as the chain of m5; His6 is lost in the sortase reaction; also called TMR-Nb_(PTHR1); source: E. coli BL21(DE3), purified (Ni-NTA, SEC), labeled by sortagging; not shown: His6, C-terminal, cleaved

binding result [12]: binds
B4: Nb_(PTHR1) labeled with biotin (VHH)
VHH: EVQLVESGGGLVQAGGSLRLSCAASGNIFANNIMGWYRQPPGKEREFVAHVSHDGDSMYAVSVKGRFAISRKDATNLYLQMNSLKPEDTAIYFCRLLNIPTQGRMEGFWGQGTQVTVSS
notes: as the chain of m5; His6 is lost in the sortase reaction (unreacted protein is captured on nickel NTA beads); also called biotin-labeled Nb_(PTHR1); source: E. coli BL21(DE3), purified (Ni-NTA, SEC), labeled by sortagging; not shown: His6, C-terminal, cleaved

binding result [12]: binds
B5: Nb_(PTHR1-X2) labeled with biotin (VHH)
VHH: EVQLVESGGGLVQAGGSLRLSCAASGLTFSNYAMGWFRQAPGKEREWVASINWSGGSTYYEDSVEGRFTISRDNAKNTVNLQMNSLKPEDTAVYYCAAKRGHYSREYDYWGQGTQVTVSS
notes: as the chain of m8; His6 is lost in the sortase reaction; also called Nb_(PTHR-X2); source: E. coli BL21(DE3), purified (Ni-NTA, SEC), labeled by sortagging; not shown: His6, C-terminal, cleaved
